Residue numbers refer to the chain shown, from its start.
B1: FS22-172-003-AA/FS28-024-060 (bispecific antibody, human IgG1, kappa, L234A L235A, V domains shown)
VH: EVQLLESGGGLVQPGGSLRLSCAASGFTLSYSSMSWVRQAPGKGLEWVSFITPSTGYTHYADSVKGRFTISRDNSKNTLYLQMNSLRAEDTAVYYCARRALWFDYWGQGTLVTVSS
VL: EIVLTQSPGTLSLSPGERATLSCRASQSVSSSYLAWYQQKPGQAPRLLIYGASSRATGIPDRFSGSGSGTDFTLTISRLEPEDFAVYYCQQASSYPLTFGQGTKVEIKR
notes: IgG1 mAb^2 with LALA
B2: FS22m-063-AA/FS28m-228 (bispecific antibody, human IgG1, kappa, L234A L235A, V domains shown)
VH: EVQLLESGGGLVQPGGSLRLSCAASGFTFSTYFMVWVRQAPGKGLEWVSMISPKSSNTYYADSVKGRFTISRDNSKNTLYLQMNSLRAEDTAVYYCARWFTPARFDYWGQGTLVTVSS
VL: B1 VL with A92P, S93F, S94P, Y95F, P96S, L97F
notes: IgG1 mAb^2 with LALA; also called anti-mouse CD137/MSLN mAb^2
B3: FS22m-063-AA/FS28m-228-010 (bispecific antibody, human IgG1, kappa, L234A L235A, V domains shown)
VH: B2 VH with W99Y, F100H, T101I, P102S, A103P
VL: B1 VL with A92P, S93F, S94P, Y95F, P96S, L97F
notes: IgG1 mAb^2 with LALA

Legend:
hMSLN-His-Avi [1] = target: T1, hMSLN-His-Avi (human, UniProt Q13421 296-598, single biotin on the Avi tag in the biotinylated form); experiment: ratio of SPR KDs
T1 construct: Monomeric; also called human MSLN-His-Avi; hMSLN-Avi-His

[2] = target: human CD137 on primary human CD8+ T cells (human, UniProt Q07011 24-255); experiment: cell-based or functional assay
[3] = target: T2, endogenous cell surface human MSLN (human, UniProt Q13421 296-598); experiment: flow cytometry, NCI-H226 cells
T2 construct: whole, on cells; The cell line is named under assay; also called cell-surface MSLN on NCI-H226, OVCAR-3 and AsPC-1 cells

cMSLN-His-Avi [4] = target: T3, cMSLN-His-Avi (cynomolgus, single biotin on the Avi tag in the biotinylated form); experiment: SPR, mAb2 captured on Protein G, MSLN in solution
T3 construct: Monomeric; also called cyno MSLN-His-Avi; cMSLN-Avi-His
T3 chain: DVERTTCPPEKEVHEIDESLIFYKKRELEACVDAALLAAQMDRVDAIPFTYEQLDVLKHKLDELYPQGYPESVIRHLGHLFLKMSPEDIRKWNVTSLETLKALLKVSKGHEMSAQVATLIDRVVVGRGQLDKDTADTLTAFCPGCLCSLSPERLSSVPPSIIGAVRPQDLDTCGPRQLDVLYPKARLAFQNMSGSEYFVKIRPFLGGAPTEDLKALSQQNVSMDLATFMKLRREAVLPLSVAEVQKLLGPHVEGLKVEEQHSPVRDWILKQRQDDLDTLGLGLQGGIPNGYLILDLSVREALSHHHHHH
Method: (§1) The association time was 5 min and the dissociation time was 5 min. Running buffer was HBS-EP (GE Healthcare BR100188). Flow cells were regenerated by injecting Glycine-HCl pH2.1 at a flow rate of 30 μl/min for 15 seconds. The data was analysed as described in Example 7.1.

[5] = target: T2, endogenous cell surface human MSLN; experiment: flow cytometry, NCI-H226 cells + 20 nM soluble MSLN
hMSLN-His-Avi [6] = target: T1, hMSLN-His-Avi; experiment: SPR, hMSLN-His-Avi immobilised ~100 RU, mAb2 injected
cMSLN-His-Avi [7] = target: T3, cMSLN-His-Avi; experiment: SPR, mAb2 captured on Protein G, cMSLN-His-Avi in solution
Method: as §1

hMSLN-His-Avi [8] = target: T1, hMSLN-His-Avi; experiment: SPR, mAb2 captured on Protein G, hMSLN-His-Avi in solution
Method: as §1

mMSLN-His-Avi [9] = target: T4, mMSLN-His-Avi (mouse, UniProt Q61468 298-600, single biotin on the Avi tag in the biotinylated form); experiment: ratio of SPR KDs
T4 construct: also called mouse MSLN-His-Avi
T4 sequence: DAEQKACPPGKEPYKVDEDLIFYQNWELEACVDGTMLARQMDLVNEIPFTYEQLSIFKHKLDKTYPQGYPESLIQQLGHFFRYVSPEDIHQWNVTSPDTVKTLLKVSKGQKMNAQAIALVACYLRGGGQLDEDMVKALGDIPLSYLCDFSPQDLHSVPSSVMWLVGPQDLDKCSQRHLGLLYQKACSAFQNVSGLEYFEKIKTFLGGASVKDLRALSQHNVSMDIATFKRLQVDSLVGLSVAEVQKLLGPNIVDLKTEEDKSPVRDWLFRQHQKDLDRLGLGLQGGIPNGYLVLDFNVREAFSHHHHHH
Method: (§2) To determine the affinity for soluble MSLN the mAb^2 was captured via an anti-human Fc. Briefly, 25 µg/ml anti-human IgG (Fc) antibody (GE Healthcare, Human Antibody Capture Kit, BR100839) was immobilised on a Biacore sensor chip CM5 (GE Healthcare, BR100530) achieving a final response of approximately 750 RU. The mAb^2 molecule, diluted in HBS-EP buffer (GE Healthcare, BR100188) at 50 nM, was injected individually at 30 µl/min to achieve a response of approximately 100 RU. The recombinant mMSLN-His-Avi antigen, diluted in HBS-EP buffer, was injected at a concentration range of 243 nM to 0.11 nM with 3-fold dilutions for 5 minutes at 70 µl/min and then allowed to dissociate in buffer for 5 minutes. Regeneration was achieved by injecting 3 M magnesium chloride (GE Healthcare, Human Antibody Capture Kit, BR100839) for 30 seconds at a rate of 30 µl/min.

mMSLN-His-Avi [10] = target: T4, mMSLN-His-Avi; experiment: SPR, mMSLN-His-Avi immobilised at 50 RU
mMSLN-His-Avi [11] = target: T4, mMSLN-His-Avi; experiment: SPR, mAb2 captured by anti-human Fc, mMSLN-His-Avi in solution
Method: as §2

T1 sequence (Q13421 other isoform, or with tags, fused parts or gaps): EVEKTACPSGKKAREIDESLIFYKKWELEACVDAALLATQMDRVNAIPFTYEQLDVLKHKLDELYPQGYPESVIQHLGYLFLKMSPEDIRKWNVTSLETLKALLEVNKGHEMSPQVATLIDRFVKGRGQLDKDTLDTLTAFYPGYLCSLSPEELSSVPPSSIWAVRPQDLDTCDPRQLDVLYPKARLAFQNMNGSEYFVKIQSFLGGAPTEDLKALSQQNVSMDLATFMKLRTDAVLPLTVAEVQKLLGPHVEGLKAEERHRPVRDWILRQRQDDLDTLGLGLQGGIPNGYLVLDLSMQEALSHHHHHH
T2 sequence (Q13421 other isoform, or with tags, fused parts or gaps limits assumed): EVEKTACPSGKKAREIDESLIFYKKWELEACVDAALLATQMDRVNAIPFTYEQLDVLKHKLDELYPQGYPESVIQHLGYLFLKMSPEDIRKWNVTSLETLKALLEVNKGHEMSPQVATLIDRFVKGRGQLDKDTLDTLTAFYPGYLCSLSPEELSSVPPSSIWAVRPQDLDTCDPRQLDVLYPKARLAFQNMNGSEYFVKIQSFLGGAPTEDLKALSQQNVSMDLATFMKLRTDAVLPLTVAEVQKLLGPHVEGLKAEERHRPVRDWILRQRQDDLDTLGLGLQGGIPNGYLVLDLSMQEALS
Sequence of human CD137 on primary human CD8+ T cells (Q07011 24-255): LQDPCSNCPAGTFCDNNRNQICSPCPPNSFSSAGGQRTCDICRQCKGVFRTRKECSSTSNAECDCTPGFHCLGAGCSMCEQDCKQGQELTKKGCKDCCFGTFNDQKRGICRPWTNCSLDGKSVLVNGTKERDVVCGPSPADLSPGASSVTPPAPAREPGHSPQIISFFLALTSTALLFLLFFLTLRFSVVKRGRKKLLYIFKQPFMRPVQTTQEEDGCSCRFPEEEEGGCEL

Binder	KD ratio in solution/immobilised human MSLN (hMSLN-His-Avi [1])	Emax (IL-2 pg/ml), NCI-H226 co-culture, Donor A [2]	Emax (IL-2 pg/ml), NCI-H226 co-culture, Donor B [2]	IL-2 release EC50, NCI-H226 co-culture, Donor A [2]	IL-2 release EC50, NCI-H226 co-culture, Donor B [2]	EC50 [3]	Emax (MFI) [3]	fold less cross reactive compared to human MSLN (cMSLN-His-Avi [4])	EC50 [5]	Emax (MFI) [5]	Kd (hMSLN-His-Avi [6])	Kd (cMSLN-His-Avi [7])	Kd (hMSLN-His-Avi [8])	ratio of KD in solution/immobilised (mMSLN-His-Avi [9])	Kd (mMSLN-His-Avi [10])	Kd (mMSLN-His-Avi [11])
B1	33	1400 pg/mL	1940 pg/mL	0.04 nM	0.06 nM	0.695 nM	840000 MFI	54 fold	4.69 nM	930000 MFI	0.13 nM	230 nM	4.27 nM			
B2														31.9	7.9 nM	252 nM
B3														23.2	2.6 nM	60.2 nM

— patent publication US12319739 (F STAR DELTA, dated 2025)
